Test: yeast display, Sf9 membrane polyspecificity reagent, FACS + sequencing; frameworks hold sequencing errors
How it was run: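 In a synthetic yeast display library (Saccharomyces cerevisiae BJ5465), nanobody expression was induced with galactose for 36–48 hours. FACS gates were set low and high (top ~1%) using anti-HA fluorescence for expression and streptavidin fluorescence for binding of the Sf9 membrane reagent. Each polyreactivity label is drawn from the gate of origin.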

Sequence | polyreactivity (PSR sort gate)
QVQLVESGGGLVQAGGSLRLSCAASGITFRWYAMGWYRQAPGKERELVAAISTSGTRTYYADSVKGRFTISRDNAKNTVYLLMNSLKPEDTAVYYCAADYGRQLGRYGFGYWGQGTQVSVSS | high polyreactivity
QVQLVVSGGGLVQAGGSLRLSCAASGYIFYANAMGWYRQAPGKEWELVAAITQSGGRTYYADSVKGRFTISRDNAKNTVYLQMNSLKPEDTAVYYCAAQPWRALGYYYWGQGTQVTVSS | high polyreactivity
QVQLVESGGGLVQAGCSLRLSCDASGFIFKVYAMGWYRQAPGKERELVASISFSGGRTYYADSVKGRFTISRDNAKNTFYLQMNSLKPEDSAVYYCNRSYVNKYYSWGQGTQVTVSS | high polyreactivity
QVQLVESAGGLVQAGGSLRLSCPASGGISALYAMGWYRQAPGKERELVAAISASGGSTYYADSVKGRFTISRDNAKNTVYLQMNSLKPEDTAVYYCNVAVLTSDIYSTTIYYYGIYDYWGQGTQVTVSS | high polyreactivity
QVQLVESGGGLVQAGGSLRLSCAASGSTFGYNAMGWYRQAPGKERELVAAISWRGGNTYYADSVKGRFTISRDNAKNTVYLQMNSLKPEDTAVYYCNKVWPRYYVHGGSRVPEYDYWGQGTQVTVSS | high polyreactivity
QVQLGESGGGLVQAGGSLRLSCAASGRTFGLYAMGWYRQAPGKERELVAAISRGTSTNYADSVKGRFTISRDNAKNTVYLEMYSLKPEDTAVYYCNARRKFVGKWGDYWGQGTQVTVSS | low polyreactivity
QVQLVESGGGLVQAGGSLRLSCAASGSTSPLYAMGWYRQAPGKERELVAAISWSTGSTYYADSVKGRFTISRDNAKNTVYLQMNSLKPEDTAVYYCAADYWFRYGTYEYWGQGTQVTVSS | high polyreactivity
QDQLVESGGGLVQAGGSLRLSCAASGSIFSYYAMGWYRQAAGKERELVAAINDGGGSTYYADSVKGRFTISRDNAKNTVYLQMNSLKPEDTAVYYCAAEWSWGPYRYDYWGQGTQVTVSS | high polyreactivity
QVQLVESGGGSVQAGGSLRLSCAASGSTFVANTMGWYRQAPGKERELVASITSGDSTNYADSVKGRFTISRDNAKNTVYLQMNSLKPEDTAVYYCAAESVWYYVGGQLIYYYWGQGTQVTVSS | low polyreactivity
QVQLVESGGGLVQAGGSLRLSCAASGITYEGYAMGWNRKAPGKERELVAAIRSSGTSTYYADSVKGRFTISRDNAKNSVYLQMNSLKPEDTAVYYCNRARSSSRYDYWGQGTQVTVSS | low polyreactivity
QVQLVESGGGLVQAGGSLRLSCAASGNTFWRYTMGWYRQAPGKERELVAAISSSGGSTYYADSVKGRFTISRDNAKNTVYLQMNSLKPEDTAVYYCAADSGSSRSRRGYEYWGQGTQVTVSS | high polyreactivity
QVQLVESGGGLVQAGGSLRLSCAASGRTFTKYAMGWYRQAPGKERELVAAISRSGGSSYYADSAPGRFTISRDNAKNTVYLQMNSLKPEDTAVYYCAARGQYRYSFGDYSWGQGTQVTVSS | high polyreactivity
QVQLVESGGGLVQAGGSLRLSCAASGRISIWYAMGWYRQAPGKERELVARISTSSGRTYYADSVKGRFTISRDNAKNTVYLQMNSLKPEDTAVYYCNAAGYRIYFSTRYDYWGQGTQVTVSS | high polyreactivity
QVQLVETGGGLVQAGGSLRLSCAGSGHIFPTNARGWYRQSPWKARELVAVISESVGSTYYADSVKGRFTISRDNSKNTVYLQMNSLKPEDTAVYYCAKQSLYPSLDADYDYWGQGTQVNVSS | low polyreactivity
QVQLVESGGGLVQAGGSLRLSCAASGSTFAIYAMGWYRQAPGKERELVASISGGSTNYADSVKGRFTISRDNAKNTVYLQMNSLKPEDTAVYYCAARGALHHWYSYDYWGQGTQVTVSS | low polyreactivity
QVQLVESGGGLVQAGGSLRLSCAASGRTFGDYAMGWSRQAPGKERELVAAIDVDGGSTYYADSVKGRFTISRDNAKNTVYLQMNSLKPEDTAVYYCNAQAPYWFSFYSDHKYDYWGQGTQVTVSS | low polyreactivity
QVQLQESGGGLVQAGGSLRLSCAASGTISDSGLMGWYRQAPGKERELVAGISSGGITNYADSVKGRFTISRDNAKKTVYLQMNSLKPEDTAVYWGQGTQLTVSS | low polyreactivity
QVQLVESGGGLVQAGGSLSLTCAASGITFPRNAMGWSRQAPGKERELVAAISARGGNTYYADSVKGRFTISRDNSKNTVYLQMNSLKPEDTAVYYCNALGSSYSEPSEYDYWGQGTQVTVSS | low polyreactivity
QVQLVESGGGLVQAGGSLRLSCAASGRTFPHYAMGWYRQAPGKERELVAAISSSGGSTYYADSVKGRFTISRDNAKNTVYLQMNSLKPEDNAVYYCAARYVDDGWKYDYWGQGTQVTVSS | low polyreactivity
QVQLVESGGGLVQAGGSLRLSCAASGSIFRGYDMGWYRQPPGKERELVAAISRSGGITYYADSVKGRFTISRDNAKNTVYLNMNSLKPEVTAVYYCAASRAGGYYGKGYSWGQGTQVTVSS | high polyreactivity
QVQLVESGGGLVQAGGSLRLSCAASGRIFRGSAMGWYRQAPGKERELVATINASGGTTYYADSVKGRFTISRDNAKNTVYLQMNSLKPEDTAVYYCNARFRRFFSGYGYWGQGTQVTVSS | high polyreactivity
QVQLVESGGGLVQAGGSLRLSCAASGSTIVTKAMGWYRQAPGKERELVAAISFSVGRTYYADSVKGRFTISRDNAKNTVYLQMNSLKPEDTAVYYCAAGLRVTPALHSYGYWGQGTQVTVSS | high polyreactivity

Sequence | polyreactivity (PSR sort gate)
QVQLVESGGGLVQAGGSLRLSCAASGFIFPWYTMGWYRQAPGKERELVAVINQSGGSTYYADSVKGRFTISRDNAKNTVYLQMNSLKPEDTAVYYCAAKSYRGSVKLRWSERGYWGQGTQVTVSS | high polyreactivity
QVQLVESGGGLVQAGGSLRLSCAASGSTFHRKAMGWYRQAPGKERELVASISIGGSTNYADSVKGRFTISRDNAKNTVYLQMNSLKPEDTAVYYCATEPNPRRPRVDYDYWGQGTQVTVSS | low polyreactivity
QVKLVESGGGLVQAGGSLRLSCAASGIIFYRYAMGWYRQAPGKERELVAAISGRTGRTYYADSVKGRFTISRDNAKNTVYLQMNSLKPEDTAVYYCAADYYHYRYQTRLDYWGQGTQVTVSS | high polyreactivity
QVQLVDSGGGLVQAGGSLRLICAASGSTFARNTMGWYRQAPGKETELVAVISRGDSTYYADSVKGRFTISRDNAKNSVYLQMNSLKPEDTAVNYCIAYLRYAYPSKMDYWGQGTQVTVSS | low polyreactivity
QVQLVEAGGGLVQAGGSLRLSCAASGYIFAYYAMGWYRQAPGKERELVATIRSGGSTNYADSVKGRFTISRDNGKNTVYLQMNSLKPEDTAVYYCARDDATAGDYWGQGTQVTVSS | low polyreactivity
QVQLVESGGGLVHAGGSLRLSCAASGRIYYFNAMGWYRQAPGKERELVATITYIGGSTHYADSEKGRFTISRDNAKNTVYLQMNSLKPEVTAVYYCAVRDGKDTDTYWYGYWGQGTQVTVSS | low polyreactivity
QVQLVESGGGLVQAGGRLRLSCAASGRTFVYNALGWYRQAPGKERELVAAISQSGGSTYYADSVKGRFTISRDNAKITVYFQMNSLKPEDTAVYYCADRYKTGSYVRYNFWGQGTQVTVSS | high polyreactivity
QVQLVESGGGLVQAGGSLRLSCAASGFNFPVNAMGWYRQAPGTERELVASITRSGGRTYYADSVKGRLTISRDNAKNTVYLQMNSLKPEDTAVYYCAARYLQEYVYEYDYWGQGTQVTVSS | high polyreactivity
QEQLQESGSGLVQAGGSLRLSCAASGNIFQDWVMGWYRQAPGKERELVAAISPGAITYYADSVKGRFTISRDNAKYTVYLQTNSLKPEDTAVYYCAAYYIVEYLHGYWGQGTRVTVSS | low polyreactivity
QVQLVESGGGLVQAGGSLRLSCAASGFIFPTYAMGWYRQAPGKERELVATITTNAGGTHYADSVKGRFTISRDNAKNTVYLQMNSLKPEDTAVYYCAAKQYRPKQRKYWTRIYDYWGQGTQVTVSS | low polyreactivity
QDQLVESGGGLVQAGGSLRLSCAASGSIFGVYAMGWYRQAPGKEGELVAAISWTDGTTYYADSVKGRFTISRDNAKNTVYLQMNSLKQEDTAVYYCAVTYPRVAKVMYYWGQGTQVNVSS | high polyreactivity
QDQLVESRGGLVQAGGSLRLTCAASGSTFVIYDMGWYSQATGKERELVAVITIIGGSTYYADSVKGRFTISRDNAKNTVYLQMNSLKPEDTAVYYCNANVIQDYPNYDYWGQGTQVSVSS | low polyreactivity
QVQLVESGGGLVLAGGSLRLICAGSGRIFYTNTMGWYRQAPWKGRELVAAIRSGTRTYYADSVKGRFTISRDNAKNTFYLLMNILKPEATAVYYCAAYYSYYGGDYWGQGTQVTVSS | low polyreactivity
QVQLVESGGGLVKAGGSLRLICDASGRTFYSYAMGWYRQAPGKERELVAAINTSGGRTHYADSVKGRFTISRDNAKYTVYLHMNSLKAEDTAVYYCAAERKNKYDYWGQGTQVTVSS | high polyreactivity
QVHLVESGGGLVQAGGSLRLSCAASGFTFNWYAMGWYRHAPGKERELVAAINSSGGNTYYADSVKGRFTISRDNAKNTVYLQMNSLKPEDTAVYYCAALLWGYVAFDYWGQGTQVTVSS | high polyreactivity
QVQLVESGGGLVQAGGSLRLSCAASGRIFNANAMGWYRHAPGKERELVAAISSSGGSTYYADSVKGRFTISRDNAKNTVYLQMNSLNPEDTAVYYCNADWGWRYSSDFDYWGQGTQVTVSS | low polyreactivity
QVHLVVSGGGLVQAGGSLRLSCAASGLTIWYYAMGWYRQAPGKESEFVAAITSRGGDTYYADSVKGRFTISRDNAKNTVYLQMNSLKPEDTAVYYCAVRPRYYGTYRYYYWGQGTQVTVSS | high polyreactivity
QVQLVESGGFLDQAGGSLRLSCAASGFTFYYYAMGWYRQAHAKERELVAAITARGVSTYYADSVKGRFTISRDNAKNTVYLQMNRLNPEDTAVYYCAKRRYYYAPAIPGYYYWGQGTKVTVSS | high polyreactivity
QVQLVESVGGLVQAGGSLRLSCAASGGIFYKYAMGWYRQAPGNERELVAAITGRGGSTNYADSVKGRFTISRDNSKNTVYLQMNSLKPEDNAVYYCAADLRLYSSQDNDYWGQGTQVTVSS | low polyreactivity
QVHLVESGRGLFQAGGSLRLSCAASGYTFGPYDMGGYRQAPGKERELVAGITLSGGITYYADSVKGRFTISRDNAKNTVYLQMNSLKPQDTAVSYCAAAFYVSYSVIYEYWGHGTQVTVSS | high polyreactivity
QVQLVESGGGLVQAGGSLRLSCAASGSIFRRYVMGWYRQAPGKERELVASISSNGTSTYYADSVKGRFTISRDNSKNTVYLQMNSLKPEDTAVYYCNVDIFDPRTYDYWGQGTQVTVSS | low polyreactivity

From the nanobody polyreactivity screen of Harvey et al. (2022)
